assay: soluble on expression in E. coli; label from the status in PepcDB or PDB records

| Sequence | soluble on expression in E. coli |
| --- | --- |
| MGSDKIHHHHHHMYNEGVTSPSQLARKKNATDKWHGSSIRKILENPHYTGTLQQCREYRPSVTSKRRRSVNLENQIIIEKSHEPIIPLEDFLIVQEILITRKRRRPQAEVHLFTNTAVCKDCRRSMHFKKNRKGYVCGSYNKHGLKACSDHYVSEIDLTDKVITNLNKIYLKFSKENYFKELSEKALKYKEKIESKIIEINEKLNDKKRDKSNLVISLANGVISKEDYQLAINITNEDISNFETTLHQLSKDLEFQKIEKEIIDFKKSLDKFMKEGTLTPEMLHLLVDEIEVHANGTIEINYRFREPTVPSA | not soluble |
| MGSDKIHHHHHHMYQNDFVMPKSVYLLNHSVGRPLQSLRQAFDERFFLPWQGSGREPWGDWLSVVEDFRVQLARLFNSETRLFCPQVNLSSGLTKLVQSHSRLRRPGAVILMSENDFPSMGFALRQALPEAEIRFIPANLDVSLAEVWQAHLTDDIDLVFISHAYSNTGQQAPLDYLIPKVRELGALSLVDVAQAAGVLPLDLNALKPDFMLGSSVKWLCGGPGAAYLWVSAAQLVHCSPQDVGWFSHENPFEFDIHDFRYHDSALKFWGGTPSVAPFALAAHSIGYFAELGSDKVRQHNLMQLQRIWRQAGDALVSPSDAARCSGTAILDFGEDQQAVVEALTQADISLDVRKQGMRISPHIYNGEQDLQRLLEALAPFCR | not soluble |
| MGSDKIHHHHHHMYRIRVFGDPVLRKRAKPVTKFDENLKKTIERMIETMYHYDGVGLAAPQVGISQRFFVMDVGNGPVAVINPEILEIDPETEVAEEGCLSFPEIFVEIERSKRIKVKYQNTRGEYVEEELEGYAARVFQHEFDHLNGVLIIDRISPAKRLLLRKKLMDIARTVKR | soluble |
| MGSDKIHHHHHHNKESTTECQTIDFSTLFDGQPEKIPLKEWAKSIHFVQLETNDSILIGNIRATILHKDKILVHHNNLSLFDLSGKFICNIGSKGGGPTEYSGINNAWTDDEGIHIFDIDNKIKTYNWNGKWIKTEPIPESNIKEVFPLASGNNIKAGYIQNITGNEPHKIYLFKDSTILAKIPYGKSFQKGEMTMVFYNECYPFHADGRTFFKEMFNDTIFSIDNQYQPIPRWYIELGKYKIAEDARYTLTDPRKSVFDNAATLTPIGKWDNKLFFSARANKQNYLFYYDLKEKKSNSIQISYPENSFAIPEEHSFIPKCMSDDGKYLISYEIQENDENPVIILAEK | not soluble |
| MGSDKIHHHHHHQDGPLRIEITDGVIEPLPFAVPDFIADTPAAAQYATDIARVIAQDLVGSGLFREIPKVAYISPYTDFDAEVNFTDWKAINAQALIAGAVSLSGDRITVRFRGYDVFAGQELGAGLQLSGTTDGWRRIAHKVADTIYSRLTGEGGYFDSRVVFVSETGPKNDRKKRLAIMDYDGANVQYLTNSDAIVLAPRFSPTGDRVLYTSYESGFPQIHVLDVGRVQRRVLSAGNGSMSFAPRFAPNGQTIVYSQSQGGNTDLFSMDINSGNPQRLTSAPSIETAPSFSPDGSQIVFESDRSGTSQLYVMSASGGEAKRISFGQGRYGTPVWSPRGDYIAFTKQNAGRFHIGVMRTDGSEERLLTASFLDEGPTWSPNGRVIMFTRETQGASGQARLYSVDISGRNLKPVKTPDGASDPSWSPLQN | not soluble |
| MGSDKIHHHHHHRLVEVGKGFSSTSVNTTVFRNNSIVTHGNTQYISYYDAEGWLMLGKRRLGTGEWILHRTQYKGHVKDAHNIISMMVDGDGYLHLSFDHHGHKLNYCRSIAPDTLVLGDKEPMIGNEEEDVTYPEFHLLADGGLLFVYRSGASGRGNMVMNRYDVKSRKWERVQDVLVDGENERNAYWQLYVDQSGTIHLSWVWRETWHVETNHDLCYARSFDGGRTWYKTNGQKYELPIRLGNAEYACRIPQNAELINQTSMSTDAGGHPYIATYWRNPDSDVPQYRIVWHDGVNWHNRQVSERKAPFSLKGGGTKMIPMSRPRMVVDNGEVYYLFRDQERGSKVSMYYTKDIQFGEWHVKDLTDFAVNAWEPSHDTELWKMKKQLHIYVQDTRQGDGEKQVETEPQMVYVLEL | not soluble |
| MGSDKIHHHHHHSCDDDGYSIGDIGWDWATVRATGGGGYYLEGDRWGMIDPVASSIPWYKPVDGERVVAFFNPLADTDKGAQVKIEGIQEVLTKEVEDMTAENEEEFGNDPIVIYQGDMWLGGKFLNIIFHQYLPRSEKHRISLVQNKIEPEAPETPEALNVDEDGYIHLELRYNTYDDVTGYRGWGRVSYNLEEFYPTAKDAAETEFKGFKVTINSKENGEGRVIVLDLDHPVGVPEKAKDVHSTSFVK | not soluble |
| MGSDKIHHHHHHSDIASSVNGGSNRLADGGDFELGMSVYGINQIDVRQTGSGTAQLSLLVSGMYQYKGMFVEMIHQSQDGVNLGVNLWSSEDWSFDLLLANLQGSWSRPDLDPSTLDEAGRNAYLLSEDSLYIGAGFRATRYWGDNYVFQYRLVSDYYDDQGIQSSARLGKSWQVRNWNFHVLGSVGYSSATLNRYLFGVSKEEATELFPEYHPSSSFSYGMELGVAYPLSESFVFRAMYRFNVLSKEVTDSPFNQAGYASFFNASISYVF | not soluble |
| MGSDKIHHHHHHSDLTSAQVAERLLVSQPKISLLENGHRAISPRDVRDLCELYGVTDRQVIDSLMRMARESGQQGWWNTYGNIPNSVYIGLETDASSIHTYEPMVIPDLLQTPAYAHAVIETTVPPIPAQQADARLKVRLRRQHRIYDPARPLRLWVVLDEPALHRVVGRPDIMREQLEHLNALSAEPHITVQVLPYTAGAHPGRQGQFSVLRFADSPEAGMVYLERFTSDLYLKKPSEVQQYSMMYDHLQARALSPEGTRDFVTDVTKSHIDVASRP | not soluble |
| MGSDKIHHHHHHSDSFTYPSAYGWWSVDNGYDVNNVNSRMVSGDFNGDGKADVATFYDYGNGASRIHVFTSNGSSFDYASAYGWWNTPSGYDPKRITAVVAGDFNGDHKDDIAVIYNYGNSETRIHVFISTGSSFSYTDCNGWWNATGYDAGRITGAVAGDFNGDGKSDIATMYDYGGGETRIHVFTSTGSSFTYTGANGWWNSTGYDSNRVKGRVVAGDFNGDGKTDIAAMYDYGGSESRIHVFLSTGDSFKYTGANGWWSTTGYDANKVTGRLVAGDFNGDGKADIAAMYDYGNAETRIHVLTSNGDSFTYTGANGWWNTTGYDANRVTGRVVAGDFNGDHKADIAAFYDYGSSASRIHVFTSNADSPESSKGAELVAYAESFLGVPYVWGGADPSGFDCSGLVQYCYEHFGVDLPRTTYDQVNCGTTVTDDLQPGDLLFFGSATSPTHVAIYAGNSKMVEAPHTGANVRLVDIRSYFIAKRIFN | not soluble |
| MGSDKIHHHHHHSQRQMDIIGNNLANSSTLGYKSADTQFANMLSQSLTSGSGSFQVGQGVAISSVNTKFDQGSFESTGSVTDMAIDGEGFFPVKDKEGAIYYTRAGAFVIDKDGYLVDVNGYRVQGINLFSAPGDAELTDICLKNIQSAPSATKTFGIGVNLNDSEDAGTSFVVSQNVFDSKGAIHNLSLTFTKTEGDGYWGCQAKLDNVETINSSCCGIKFDESGNLKNTYLTSCSAGAVSGGGAITSTTVNKPGQLYLNGTIACTRGADADTWTISSSEYPNLEFSLGDLGNDDEIAIDLDGKGGTDITLALGAGFADLSSFDLTISQVESNAADVTFEFPGLANGADIGSGNALTWNLIGDDALQVTGYAATSVIKALEVDGYTSGVLKSLSVEKDGIISGIFTNGQTSDLGQVVLANFPNVGALRKIGSYFAETNFSGAAIINSPGTGGLGEIMSNSLEQSNTDVSMEFVNMINAQRAYQASARIITTSDEMLTELMNIKR | not soluble |
| MGSDKIHHHHHHSRSTKGVRELSLFNRHTGEYNNGSYWVDGHYQSEVLADFSHLLRDHRQNVAAPMDKRLFDLLYTLKSTLNTDKEIHVISGYRSPKTNAMLAGKSGGVAKKSYHMQGMAMDIAIPGVNLKTIRDAALSLKLGGVGYYPKSGFVHVDCGPVRHW | not soluble |
| MGSDKIHHHHHHTDENETNNGKRTDCYNGTPLTVRATATGFENVPGSEKPSTRASVTDEHLKTEFVDGDSIGIFSIKDSTIVDDINNIPLVYNVSNDSWNPVENSKTLYWYDGASYIAYYPYRKNITLDVSKDTDEAIASLTRNEKLQPSKDQSTKEKHTVSDLLIATGVPTTGNSSGIILNLQFKHQFTLLVLQPQAYIGCFAPENAGFVYHKESRILGTDSAAINVNLNGITPYQIDSVKFCAIVPSQKNARITGSYVTADGRNNTNTKINYSGSSITFASGKCYTLKVISPVPGKGSTERKLYPGDFVFQNETEKRIEIHPGDGMLEENGKIYDYQNAIGMVITCDSKKMTDVKCNENGWNHAYVMGFENLGTGRWGGMERIEEGITPMTKDDEIEKNMNGYSETEQMLKNYTANVQGSYSAFESIRKYRNSNKIPDGLNRSPWFVPSIGQWFDMLVNICGKSPRDFRNETSNGLNDTGWGQETLDKLTIQLSKVGNSLPQFSDTYRLGFSCSSQYDKDRCWMLLWHIDDPEYPNWDRVCLQGYDKKAYWNVRPFFAF | not soluble |
| MGSDKIHHHHHHVAKSIAGGVRPGIIIDIEHRLLKQIIVGKQKAAASMFDDLDRELENDANKLAIERDAVFERLSKQIQARQVYEAVSKQLITTVNSTLDNQLASPELLIQHSGINASQMLMLELLQQKNLDLSRLRLLIADLPWLARDLTNMVNSPSFRHKRQQRSDVKVTEIKLVLNFIGVENLRLLIPYYCLRNWLPTGHANLLWTTRKLWRYAMVTGIAAKALAQLNEQDMATAYTSSLLYQLGVSVVLKNGAKVYESIWGNWLREASASRDKELHDAVLATEFPAEDIYQQVLQHAHTLNWRLPELLDFSASGLTQTQRELDTCLSYSELSTEAALVARASCYAKVLMLDEMRLISPKEKQMMFDYYQLSEQEQIRLKGQNYRKLDLY | not soluble |
| MGSDKIHHHHHHVAPSIRARSAGRDETEFDFMMTDPLALAKRLIALRARIVATFNAGNWEEVGLLSGQSKIITGHDRLLRSLSWHDEDYEGNVLTVLRRISDRDVRALDVIEEYLNEKFPGEEKTEYVSAKPSERKITFAPNVFQIPDGSVESDLVAVMMPFSPEFKPVYEAMKRACTANSLRSMRVDDMWQDSVIVQDIFSLIFRAQVVVVDFSRKNPNVMYETGIAHTLGKHVVPIAQTIDDVPFDMRHHRTLLYLANGEGLQQLERELAAKLKQFGGGGPPIINLGFSR | not soluble |
| MGSDKIHHHHHHVDLGHDVTLFASGDSITSAKLDACWPRALRLDPTIRDALAPHMLMMEKVRKVAHEFDVLHFHLDYMPFPLFTTMDTPFVTTLHGRLDLPELQPVFDACSNVPVVSISDSQRQPLPQANWLNTIYHGLPEQLLTPQAHKKPEYLAFLGRICPEKRVDTAIRIAAQSGLPLKIAAKVDKVDQEYFKREIEPLLSMAHVEFVGEINEAQKPEFLSSAKALLFPIDWSESFGLVMIESMACGTPVIAFNRGSVPEVIDHGVTGYIVEDVQGAVAALQRLDELSRTEMRGRRLNLPLEKMRDWRIGSRVCRHHAG | not soluble |
| MGSDKIHHHHHHVEQAQLDEYLDRFQLTDVFAGGLREHLQPVAFQAGDWLCRQGDAADRMYLLLEGKLKITHMSATGKRLVLSFKHPFDLVGDIEYVRRTPLMNTVEAVTPVKAVSISYAALEQKGADNPALLRFLLETITMKFELKSHSMSFNLLYPVEVRLASYLLSMTPETPTLPVSDLVDAADLIGTSYRHLNRVLRQFSQDNLIERTNRTITIIDREGLTERVGESIYE | not soluble |
| MGSDKIHHHHHHVHAASRGAHRRLGAMRSSASQPLLKAALWDMDGTIVDTEPYWIEAEHALVAAHGGQWSHAQAMQLVGQSLVFSAGVLQKAGVKLEAREIIDSLTARVVSKVRKSVPWRPGARELLDQLHEAGIRCALVTMSEGPLAREVVAALPKPYFEFLVTGDTVTNGKPHPEAYLKAVELLQQGDSALTIADCVALEDSAPGVAAAMAAGVATVAIPHIVPLPDDPARATWHSLEGRTVADLQQLVARRSEFAVGDIGLEDAAFRSHGLD | not soluble |
